Measurements taken from paper PMC11024197.
“And” between values parts separate entries of the source, which are not always exact repeats. Identical values can stand only once. Values belong to the substance of their own block, whether it stands above or below them.

Columns and labels:
[1] = target: PEX14 NTD (1-104) (human) (UniProt O75381); assay: ITC; PEX14 (1-104) (20-60 uM, concentration corrected with the fit) in the cell, peptide or fragment in the syringe; 25 °C, 20 mM Tris pH 7.5, 50 mM NaCl; one-site binding model; single runs of triplicates and their averages
[2] = target: PEX14 NTD (1-104) (human) (UniProt O75381); assay: ITC; PEX14 NTD (1-104) (20-60 µM) in the cell, titrated with PEX5 W peptides or W0 (0.4-0.6 mM), PEX13 FxxxF (0.46 mM) or PEX13 SH3-CTR (1 mM); 25 °C; 20 mM Tris pH 7.5, 50 mM NaCl; one-site binding model; PEX14 concentration corrected with the fit; triplicates
[3] = target: PEX14 NTD (1-104) (human) (UniProt O75381); assay: ITC; PEX14 (1-104) at 20-60 µM titrated with PEX5 W peptides or W0 (0.4-0.6 mM), PEX13 FxxxF (0.46 mM) or PEX13 SH3-CTR (1 mM); 25 °C; 20 mM Tris pH 7.5, 50 mM NaCl; one-site model; PEX14 concentration corrected with the fit; triplicates
[4] = target: PEX13 SH3 domain (human) (UniProt Q92968); assay: ITC; PEX13 SH3 at 35-48 µM titrated with PEX5 15-mer peptides or PEX5 1-76 (0.6-0.7 mM) or PEX13 350-403 (0.9-1 mM); 25 °C; 20 mM Tris pH 7.5, 50 mM NaCl; one-site model; triplicates
[5] = target: PEX13 SH3 domain (human) (UniProt Q92968); assay: ITC; PEX13 SH3 (35-48 uM) in the cell, peptide or fragment in the syringe; 25 °C, 20 mM Tris pH 7.5, 50 mM NaCl; one-site binding model; single runs of triplicates and their averages

PEX14 NTD (1-104) (human), sequence (O75381 1-104): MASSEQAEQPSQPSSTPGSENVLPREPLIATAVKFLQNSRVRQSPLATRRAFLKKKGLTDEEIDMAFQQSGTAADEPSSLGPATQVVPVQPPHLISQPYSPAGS

- stoichiometry N [1]: 1 sites
- stoichiometry N [2]: 1
Substance: PEX5 W4 peptide

- stoichiometry N [1]: 1 sites
- stoichiometry N [2]: 1
Substance: PEX5 W2 peptide

- Kd [3]: 5.4 µM
- stoichiometry N [3]: 1
Substance: PEX13 SH3-CTR (residues 261-403) (from UniProt Q92968 261-403) (domain or fragment)

- Kd [4]: 6 µM
Substance: PEX13 FF/W4 (FxxxF core motif FESVF replaced with WYDEY), as titrated onto the SH3 domain (domain or fragment)

- stoichiometry N [1]: 1 sites
- stoichiometry N [2]: 1
Substance: PEX5 W3 peptide

- Kd [3]: 2.8 µM
- stoichiometry N [3]: 1
- Kd [4]: 27 µM
Substance: PEX13 FxxxF peptide (residues 350-403) (from UniProt Q92968 350-403) (domain or fragment)

- Kd [5]: 6.48 µM and 6.11 µM and 6.59 µM
- stoichiometry N [5]: 1 sites
Substance: PEX13 FF/W4 (FxxxF fragment with the core motif FESVF replaced by WYDEY) (domain or fragment)
